# According to patent US20220389118A1 (Chugai, published 2022):
# Changes are numbered by the printed parent chain. Names may count otherwise.
# T1: human FcγRIIb extracellular domain with C-terminal His tag (human, UniProt P31994 43-217)
# T1 construct: extracellular domain; also called FcgRIIb
# T1 sequence (looked up): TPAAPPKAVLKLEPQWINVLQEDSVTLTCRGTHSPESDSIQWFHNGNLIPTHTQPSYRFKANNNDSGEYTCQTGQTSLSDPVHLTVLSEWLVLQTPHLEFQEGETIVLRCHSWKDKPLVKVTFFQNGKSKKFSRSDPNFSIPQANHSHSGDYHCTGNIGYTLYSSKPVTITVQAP
# T2: human FcγRIIa type R extracellular domain with C-terminal His tag (human, UniProt P12318 34-217)
# T2 construct: extracellular domain; also called FcγRIIaR; FcgRIIaR
# T2 sequence (looked up): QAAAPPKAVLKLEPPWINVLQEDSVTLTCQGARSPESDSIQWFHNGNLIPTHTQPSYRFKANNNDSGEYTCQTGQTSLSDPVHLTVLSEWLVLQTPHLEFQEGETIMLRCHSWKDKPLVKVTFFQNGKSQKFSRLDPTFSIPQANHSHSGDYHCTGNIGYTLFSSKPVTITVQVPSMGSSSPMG
# T3: human FcγRIIa type R extracellular domain with C-terminal His tag (human, UniProt P12318 34-217)
# T3 construct: extracellular domain; also called FcγRIIaR; FcγRIIa R
# T3 sequence (looked up): T2 sequence (looked up)
# B1: IL6R-2B171/IL6R-L (antibody, human IgG1, kappa)
# heavy: QVQLQESGPGLVKPSETLSLTCAVSGHSISHDHAWSWVRQPPGEGLEWIGFISYSGITNYNPSLQGRVTISRDNSKNTLYLQMNSLRAEDTAVYYCARSLARTTAMDYWGEGTLVTVSSASTKGPSVFPLAPSSKSTSGGTAALGCLVKDYFPEPVTVSWNSGALTSGVHTFPAVLQSSGLYSLSSVVTVPSSSLGTQTYICNVNHKPSNTKVDKKVEPKSCDKTHTCPPCPAPELLGGDSVFLFPPKPKDTLMISRTPEVTCVVVDVSHEDPEVKFNWYVDGVEVHNAKTKPREEQYNSTYRVVSVLTVLHQDWLNGKEYKCKLSNKALPAPIEKTISKAKGQPREPQVYTLPPSRDELTKNQVSLTCLVKGFYPSDIAVEWESNGQPENNYKTTPPVLDSDGSFFLYSKLTVDKSRWQQGNVFSCSVMHEALHNHYTQESLSLSP
# light: not shown
# notes: IgG1 type
# B2: IL6R-BP078/IL6R-L (antibody, human IgG1, kappa)
# heavy: B1 heavy with L325V, A332M
# light: not shown
# notes: IgG1 type
# B3: IL6R-BP100/IL6R-L (antibody, human IgG1, kappa)
# heavy: B1 heavy with S269A, L325V
# light: not shown
# notes: IgG1 type
# B4: IL6R-BP102/IL6R-L (antibody, human IgG1, kappa)
# heavy: B1 heavy with S269Q, L325V
# light: not shown
# notes: IgG1 type
# B5: IL6R-BP103/IL6R-L (antibody, human IgG1, kappa)
# heavy: B1 heavy with S269V, L325V
# light: not shown
# notes: IgG1 type
# B6: IL6R-BP107/IL6R-L (antibody, human IgG1, kappa)
# heavy: B1 heavy with H270E, L325V
# light: not shown
# notes: IgG1 type
# B7: IL6R-BP116/IL6R-L (antibody, human IgG1, kappa)
# heavy: B1 heavy with L325V, K328T
# light: not shown
# notes: IgG1 type
# B8: IL6R-BP117/IL6R-L (antibody, human IgG1, kappa)
# heavy: B1 heavy with L325V, K328D
# light: not shown
# notes: IgG1 type
# B9: IL6R-BP118/IL6R-L (antibody, human IgG1, kappa)
# heavy: B1 heavy with L325V, K328S
# light: not shown
# notes: IgG1 type
# B10: IL6R-BP120/IL6R-L (antibody, human IgG1, kappa)
# heavy: B1 heavy with L325V, K328E
# light: not shown
# notes: IgG1 type
# B11: IL6R-BP126/IL6R-L (antibody, human IgG1, kappa)
# heavy: B1 heavy with L325V, K328L
# light: not shown
# notes: IgG1 type
# B12: IL6R-BP911/IL6R-L (antibody, human IgG1, kappa)
# heavy: B1 heavy with L325V, A332K
# light: not shown
# notes: IgG1 type
# B13: IL6R-PD043/IL6R-L (antibody, human IgG1, kappa)
# heavy: B1 heavy with L236Y, M254Y, L325V, N436Y, E441K
# light: not shown
# notes: also called P238D/L234Y; L234Y/P238D; copies: 2 + 2
# B14: IL6R-PD081/IL6R-L (antibody, human IgG1, kappa)
# heavy: B1 heavy with G239E, M254Y, L325V, N436Y, E441K
# light: not shown
# notes: also called P238D/G237E; G237E/P238D; copies: 2 + 2
# B15: IL6R-PD082/IL6R-L (antibody, human IgG1, kappa)
# heavy: B1 heavy with G239F, M254Y, L325V, N436Y, E441K
# light: not shown
# notes: also called P238D/G237F; G237F/P238D; copies: 2 + 2
# B16: IL6R-PD086/IL6R-L (antibody, human IgG1, kappa)
# heavy: B1 heavy with G239L, M254Y, L325V, N436Y, E441K
# light: not shown
# notes: also called P238D/G237L; G237L/P238D; copies: 2 + 2
# B17: IL6R-PD094/IL6R-L (antibody, human IgG1, kappa)
# heavy: B1 heavy with G239W, M254Y, L325V, N436Y, E441K
# light: not shown
# notes: also called P238D/G237W; G237W/P238D; copies: 2 + 2
# B18: IL6R-PD095/IL6R-L (antibody, human IgG1, kappa)
# heavy: B1 heavy with G239Y, M254Y, L325V, N436Y, E441K
# light: not shown
# notes: also called P238D/G237Y; G237Y/P238D; copies: 2 + 2
# B19: IL6R-PD097/IL6R-L (antibody, human IgG1, kappa)
# heavy: B1 heavy with S241D, M254Y, L325V, N436Y, E441K
# light: not shown
# notes: also called P238D/S239D; copies: 2 + 2
# Target: T1, human FcγRIIb extracellular domain with …
# Assay: SPR (Biacore), antibody captured, FcγR as analyte
Binder,KD(IIb) of parent polypeptide/KD(IIb) of altered polypeptide [fold vs IL6R-B3/IL6R-L],Kd [µM]
B1,2.9,–
B2,2.8,–
B3,2.9,–
B4,3.4,0.9
B5,2.5,–
B6,3.3,–
B7,2.8,–
B8,3.9,0.8
B9,2.7,–
B10,3,1
B11,2.2,–
B12,3.5,–

# Target: T2, human FcγRIIa type R extracellular …
# Assay: SPR (Biacore), antibody captured, FcγR as analyte
row,Binder,Kd [µM]
1,B1,16
2,B2,15
3,B3,7.8
4,B4,8.4
5,B5,11
6,B6,12
7,B7,15
8,B8,9.2
9,B9,15
10,B10,9.6
11,B11,11
12,B12,16

# Target: T4, human FcγRIIIa type V extracellular domain with C-terminal His tag (human, UniProt P08637 17-208)
# T4 construct: extracellular domain; also called FcγRIIIaV; FcγRIIIa V type
# T4 sequence (P08637 17-208 F176V): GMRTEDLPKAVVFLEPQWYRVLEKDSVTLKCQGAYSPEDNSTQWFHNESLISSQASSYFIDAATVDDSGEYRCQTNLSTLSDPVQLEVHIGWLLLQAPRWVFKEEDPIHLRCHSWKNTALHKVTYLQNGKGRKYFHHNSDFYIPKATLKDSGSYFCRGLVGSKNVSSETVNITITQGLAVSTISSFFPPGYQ
# Assay: SPR, Ref. Ex. 25
row,Binder,Kd [µM]
1,B13,45
2,B14,41
3,B15,43
4,B16,41
5,B17,38
6,B18,42
7,B19,17

# Target: T3, human FcγRIIa type R extracellular …
# Assay: SPR, Ref. Ex. 25
row,Binder,Kd [µM]
1,B13,26
2,B14,38
3,B15,14
4,B17,7.2
5,B18,7.9
